Legend:
[1] = target: human interleukin 12 (p70 heterodimer of p35 and p40) (human) (UniProt P29459); experiment: SPR (BIAcore), off-rate
[2] = target: human interleukin 12 (recombinant human IL-12, p70 heterodimer) (human) (UniProt P29459); experiment: cell-based or functional assay
human interleukin 12 (recombinant human IL-12, p70 heterodimer) (human), sequence (P29459 23-219, chain 1 of 2): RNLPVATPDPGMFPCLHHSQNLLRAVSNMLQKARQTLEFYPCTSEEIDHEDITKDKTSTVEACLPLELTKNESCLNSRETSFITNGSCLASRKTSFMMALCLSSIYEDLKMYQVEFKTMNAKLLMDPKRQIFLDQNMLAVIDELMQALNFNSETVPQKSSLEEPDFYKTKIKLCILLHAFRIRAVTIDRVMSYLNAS
human interleukin 12 (recombinant human IL-12, p70 heterodimer) (human), sequence (P29460 23-328, chain 2 of 2, further chain): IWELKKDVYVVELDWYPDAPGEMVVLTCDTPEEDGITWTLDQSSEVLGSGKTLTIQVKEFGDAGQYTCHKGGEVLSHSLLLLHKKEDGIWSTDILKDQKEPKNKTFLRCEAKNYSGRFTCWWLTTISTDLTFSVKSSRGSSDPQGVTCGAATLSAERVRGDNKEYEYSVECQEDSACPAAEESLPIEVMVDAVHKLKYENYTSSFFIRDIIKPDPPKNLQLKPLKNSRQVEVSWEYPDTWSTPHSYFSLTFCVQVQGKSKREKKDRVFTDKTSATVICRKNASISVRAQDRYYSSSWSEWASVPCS

human interleukin 12 (p70 heterodimer of p35 and p40) (human), sequence (P29459 23-219, chain 1 of 2): as the sequence (P29459 23-219, chain 1 of 2) above
human interleukin 12 (p70 heterodimer of p35 and p40) (human), sequence (P29460 23-328, chain 2 of 2, further chain): as the sequence (P29460 23-328, chain 2 of 2, further chain) above

koff [1] [s⁻¹]	PHA assay IC50 [2] [pM]	Substance
0.0011		SEQ ID NO: 451 (Y61, R at H101) (antibody)
0.00162		SEQ ID NO: 456 (Y61, I at H101) (antibody)
0.00229		SEQ ID NO: 433 (Y61, G at H97) (antibody)
0.00197		SEQ ID NO: 425 (Y61, W at H96) (antibody)
0.000956		SEQ ID NO: 465 (Y61, L at H102) (antibody)
0.00223		SEQ ID NO: 452 (Y61, N at H101) (antibody)
0.00239		SEQ ID NO: 437 (Y61, W at H97) (antibody)
0.000169		SEQ ID NO: 392 (Y61, I at H56) (antibody)
0.000219		Y61 with H31S→E (antibody)
0.00231		SEQ ID NO: 404 (Y61, E at H95) (antibody)
0.00208		SEQ ID NO: 423 (Y61, I at H96) (antibody)
0.00018		SEQ ID NO: 458 (Y61, H at H102) (antibody)
0.000673		SEQ ID NO: 442 (Y61, A at H98) (antibody)
0.00208		SEQ ID NO: 435 (Y61, I at H97) (antibody)
0.0015		SEQ ID NO: 410 (Y61, A at H95) (antibody)
0.000416		SEQ ID NO: 395 (Y61, E at H58) (antibody)
0.00193		SEQ ID NO: 405 (Y61, S at H95) (antibody)
0.00224		SEQ ID NO: 414 (Y61, D at H96) (antibody)
0.00181		SEQ ID NO: 467 (Y61, P at H102) (antibody)
0.00106		SEQ ID NO: 454 (Y61, A at H101) (antibody)
0.000345		SEQ ID NO: 394 (Y61, F at H56) (antibody)
0.00143		SEQ ID NO: 434 (Y61, A at H97) (antibody)
0.003		SEQ ID NO: 436 (Y61, P at H97) (antibody)
0.000318		SEQ ID NO: 469 (Y61, F at H102) (antibody)

koff [1] [s⁻¹]	PHA assay IC50 [2] [pM]	Substance
0.000996		SEQ ID NO: 466 (Y61, I at H102) (antibody)
	80	Y61-L94N (antibody)
0.000382		SEQ ID NO: 464 (Y61, A at H102) (antibody)
0.000333		SEQ ID NO: 462 (Y61, T at H102) (antibody)
0.00163		SEQ ID NO: 455 (Y61, V at H101) (antibody)
0.00514		SEQ ID NO: 413 (Y61, F at H95) (antibody)
0.000449		SEQ ID NO: 448 (Y61, S at H101) (antibody)
0.00471		SEQ ID NO: 412 (Y61, P at H95) (antibody)
0.000174		Y61 with L50→Y (antibody)
0.00327		SEQ ID NO: 450 (Y61, H at H101) (antibody)
0.00191		SEQ ID NO: 429 (Y61, H at H97) (antibody)
0.000343		SEQ ID NO: 445 (Y61, I at H98) (antibody)
0.000325		SEQ ID NO: 457 (Y61, S at H102) (antibody)
0.0018		SEQ ID NO: 438 (Y61, F at H97) (antibody)
0.000405		SEQ ID NO: 459 (Y61, K at H102) (antibody)
0.00273		SEQ ID NO: 428 (Y61, Y at H97) (antibody)
0.00202		SEQ ID NO: 426 (Y61, D at H97) (antibody)
0.000242		SEQ ID NO: 415 (Y61, C at H96) (antibody)
0.000628		SEQ ID NO: 402 (Y61, P at H58) (antibody)
0.000299		SEQ ID NO: 393 (Y61, P at H56) (antibody)
0.000383		SEQ ID NO: 390 (Y61, M at H56) (antibody)
0.00034		SEQ ID NO: 440 (Y61, R at H98) (antibody)
0.00073		SEQ ID NO: 400 (Y61, L at H58) (antibody)
0.000272		SEQ ID NO: 389 (Y61, G at H56) (antibody)

koff [1] [s⁻¹]	PHA assay IC50 [2] [pM]	Substance
0.00042		SEQ ID NO: 386 (Y61, H at H56) (antibody)
0.00147		SEQ ID NO: 411 (Y61, L at H95) (antibody)
0.000831		SEQ ID NO: 398 (Y61, N at H58) (antibody)
0.00204		SEQ ID NO: 421 (Y61, M at H96) (antibody)
0.000575		SEQ ID NO: 460 (Y61, R at H102) (antibody)
0.000235		SEQ ID NO: 388 (Y61, T at H56) (antibody)
0.00202		SEQ ID NO: 409 (Y61, T at H95) (antibody)
0.000794		SEQ ID NO: 403 (Y61, F at H58) (antibody)
0.00129		SEQ ID NO: 424 (Y61, P at H96) (antibody)
0.000235		SEQ ID NO: 468 (Y61, W at H102) (antibody)
0.00228		SEQ ID NO: 407 (Y61, K at H95) (antibody)
0.000692		SEQ ID NO: 463 (Y61, G at H102) (antibody)
0.000657		SEQ ID NO: 401 (Y61, I at H58) (antibody)
0.000293		SEQ ID NO: 443 (Y61, V at H98) (antibody)
0.00375		SEQ ID NO: 453 (Y61, G at H101) (antibody)
0.00039		SEQ ID NO: 385 (Y61, Y at H56) (antibody)
0.00221		SEQ ID NO: 431 (Y61, N at H97) (antibody)
	60	Y61-L94F (antibody)
0.000264		SEQ ID NO: 391 (Y61, L at H56) (antibody)
0.000524		SEQ ID NO: 399 (Y61, V at H58) (antibody)
0.000982		SEQ ID NO: 417 (Y61, R at H96) (antibody)
0.000227		SEQ ID NO: 441 (Y61, T at H98) (antibody)
0.000237		SEQ ID NO: 416 (Y61, H at H96) (antibody)
0.000941		SEQ ID NO: 396 (Y61, S at H58) (antibody)

Reference: US20120219562A1
